# Measured values as given in patent US20260209789A1, “TRIGGER-INDUCIBLE MRNA CIRCULARIZATION” (WESTLAKE UNIVERSITY, priority 2022, published 2026).
# Tested on: N2A, Hepa1-6 and B16-F10 cells
# Assay: AFP promoter-driven NanoLuc reporter and AFP qRT-PCR
# Format: cell-based, murine
# Conditions: AFP-deficient cell lines, 48 h
# Protocol: (A) Quantification of AFP-levels using (left panel) TSP-driven reporter gene expression and (right panel) qRT-PCR. (left panel) N2A, Hepa1-6 and B16-F10 cells were co-transfected with a PMusAFP-driven NanoLuc expression vector (pSLM54) and a constitutive FLuc expression vector (pYW99). Luciferase levels were quantified at 48 h after transfection. Data presented are mean±SD of relative luciferase activity (NanoLuc/FLuc) for n=3 individual experiments. (right panel) Relative AFP expression levels in N2A, Hepa1-6 and B16-F10 cells were profiled by qRT-PCR using murine AFP-specific primers listed in Table S1 and normalized to the gene encoding murine ribosomal protein (Rplp0).
# Reverse transcription-polymerase chain reaction (RT-PCR). For quantitative analysis, PCR reaction was carried out with an initial step of 95° C. for 30 s followed by 40 cycles of 95° C. for 10 s and 60° C. for 30 s on the Applied Biosystems QuantStudio 1 Real-Time PCR System (ThermoFisher Scientific) using the ChamQ Universal SYBR qPCR Master Mix (Vazyme Biotech; cat. no. Q711-02) and the primers listed in Table S1. The relative cycle threshold (CT) was determined and normalized against the expression level of endogenous human glyceraldehyde 3-phosphate dehydrogenase (GAPDH) or murine ribosomal protein (Rplp0) genes. […]
molecule,measurement,value
"PAFP: alpha-fetoprotein (AFP) promoter, model tissue-specific promoter (nucleic acid) DNA: AGGGGAAATAATCTATTTGAACAGTTTAGATGGTGAAGAACATTTGCAGCATTTGCAAGATTTTTTTCCACTCTGAAGTGGTCTTTGTCCTTGAACATAGGATACAAGTGACCCCTGCTCTGTTAATTATTGGCAAATTGCCTAACTTCAACGTAAGGAAATAGAGTCATATGTTTGCTCACTGAAGGTTACTAGTTAACAGGCATCCCTTAAACAGGATATAAAAGGACTTCAGCAGGACTGCTCGAAACATCCCACTTCCAGCACTGCCTGCGGTGAAGGA",promoter-driven reporter gene expression (NanoLuc/FLuc),non-specific PAFP-driven reporter gene expression
